Reference: IntAct's records for PubMed 29039417

B1: Protein PTHB1 (Homo sapiens), Q3SYG4 (parent)
chain: MSLFKARDWWSTILGDKEEFDQGCLCLANVDNSGNGQDKIIVGSFMGYLRIFSPHPAKTGDGAQAEDLLLEVDLRDPVLQVEVGKFVSGTEMLHLAVLHSRKLCVYSVSGTLGNVEHGNQCQMKLMYEHNLQRTACNMTYGSFGGVKGRDLICIQSMDGMLMVFEQESYAFGRFLPGFLLPGPLAYSSRTDSFLTVSSCQQVESYKYQVLAFATDADKRQETEQQKLGSGKRLVVDWTLNIGEQALDICIVSFNQSASSVFVLGERNFFCLKDNGQIRFMKKLDWSPSCFLPYCSVSEGTINTLIGNHNNMLHIYQDVTLKWATQLPHIPVAVRVGCLHDLKGVIVTLSDDGHLQCSYLGTDPSLFQAPNVQSRELNYDELDVEMKELQKIIKDVNKSQGVWPMTEREDDLNVSVVVSPNFDSVSQATDVEVGTDLVPSVTVKVTLQNRVILQKAKLSVYVQPPLELTCDQFTFEFMTPDLTRTVSFSVYLKRSYTPSELEGNAVVSYSRPTDRNPDGIPRVIQCKFRLPLKLICLPGQPSKTASHKITIDTNKSPVSLLSLFPGFASQSDDDQVNVMGFHFLGGARITVLASKTSQRYRIQSEQFEDLWLITNELILRLQEYFEKQGVKDFACSFSGSIPLQEYFELIDHHFELRINGEKLEELLSERAVQFRAIQRRLLARFKDKTPAPLQHLDTLLDGTYKQVIALADAVEENQGNLFQSFTRLKSATHLVILLIALWQKLSADQVAILEAAFLPLQEDTQELGWEETVDAAISHLLKTCLSKSSKEQALNLNSQLNIPKDTSQLKKHITLLCDRLSKGGRLCLSTDAAAPQTMVMPGGCTTIPESDLEERSVEQDSTELFTNHRHLTAETPRPEVSPLQGVSE
partner: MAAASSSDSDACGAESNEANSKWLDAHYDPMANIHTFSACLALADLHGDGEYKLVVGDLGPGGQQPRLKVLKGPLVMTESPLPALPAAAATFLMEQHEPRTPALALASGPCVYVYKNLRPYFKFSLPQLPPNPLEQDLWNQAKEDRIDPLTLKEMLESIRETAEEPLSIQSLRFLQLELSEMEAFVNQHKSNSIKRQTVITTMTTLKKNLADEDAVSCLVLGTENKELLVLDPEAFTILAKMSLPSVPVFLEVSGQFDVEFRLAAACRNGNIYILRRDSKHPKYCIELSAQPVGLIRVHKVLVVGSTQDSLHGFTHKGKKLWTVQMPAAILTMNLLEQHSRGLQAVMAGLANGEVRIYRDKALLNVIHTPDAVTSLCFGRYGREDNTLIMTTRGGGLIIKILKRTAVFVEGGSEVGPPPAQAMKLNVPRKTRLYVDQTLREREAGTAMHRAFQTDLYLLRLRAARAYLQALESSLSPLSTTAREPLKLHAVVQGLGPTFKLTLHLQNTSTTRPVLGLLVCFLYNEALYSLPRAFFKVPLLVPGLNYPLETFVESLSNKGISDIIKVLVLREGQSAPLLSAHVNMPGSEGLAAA

Variants of: B1
Conditions: with bbs1_human BBS1, Q8NFJ9

Row | Variant | effect of a mutation on the interaction
1 | H651E | with no effect
2 | H651A | with no effect
3 | H651K | with no effect
4 | H651T | disrupting interaction strength
5 | L692K | with no effect
6 | L692A | with no effect
7 | L692R | disrupting interaction strength
8 | L692E | with no effect
9 | R674K | with no effect
10 | R674E | with no effect
11 | R674P | disrupting interaction strength
12 | R674A | with no effect
13 | F673A | with no effect
14 | F673K | with no effect
15 | F673E | with no effect
16 | R683K | with no effect
17 | R683E | with no effect
18 | R683A | with no effect
19 | Y645A | with no effect
20 | Y645K | with no effect
21 | Y645E | with no effect
22 | R678E | with no effect

Row | Variant | effect of a mutation on the interaction
23 | R678K | with no effect
24 | R678A | with no effect
25 | R656E | with no effect
26 | R656K | with no effect
27 | R656A | with no effect
28 | E654A | with no effect
29 | E654K | with no effect
30 | E654G | disrupting interaction strength
31 | L655E | with no effect
32 | L655K | with no effect
33 | L655A | with no effect
34 | I649A | with no effect
35 | I649K | with no effect
36 | I649E | with no effect
37 | F684K | with no effect
38 | F684A | with no effect
39 | F684E | with no effect
40 | L666E | with no effect
41 | L666K | with no effect
42 | L666A | with no effect
43 | N658A | with no effect
44 | N658E | with no effect

Row | Variant | effect of a mutation on the interaction
45 | N658K | with no effect
46 | G659A | with no effect
47 | G659E | with no effect
48 | G659K | with no effect
49 | P689E | with no effect
50 | P689A | with no effect
51 | P689K | with no effect
52 | D650E | with no effect
53 | D650K | with no effect
54 | D650A | with no effect
55 | L695K | with no effect
56 | L695M | disrupting interaction strength
57 | L695A | with no effect
58 | L695E | with no effect
59 | A675K | with no effect
60 | A675E | with no effect
61 | G701A | with no effect
62 | G701E | disrupting interaction strength
63 | A690K | disrupting interaction strength
64 | A690V | disrupting interaction strength
65 | A690E | with no effect
66 | A690T | disrupting interaction strength

Row | Variant | effect of a mutation on the interaction
67 | Q693A | with no effect
68 | Q693K | with no effect
69 | Q693E | with no effect
70 | Q677Y | disrupting interaction strength
71 | Q677K | with no effect
72 | Q677A | with no effect
73 | Q677E | with no effect
74 | Q672A | with no effect
75 | Q672E | with no effect
76 | Q672K | with no effect
77 | E644K | with no effect
78 | E644A | with no effect
79 | K687A | with no effect
80 | K687E | with no effect
81 | D686A | with no effect
82 | D686K | with no effect
83 | D686E | with no effect
84 | A682K | with no effect
85 | A682E | with no effect
86 | E668A | with no effect
87 | E668K | with no effect
88 | I676E | with no effect

Variants of: B1
Conditions: with bbs1_human BBS1, Q8NFJ9
Remark: another data set of the same source

Row | Variant | effect of a mutation on the interaction
89 | A690K | with no effect
